In PMC3436581:

Biological target: Cu^2+-catalyzed oxidized PrP(23–231) (mild condition) (mouse) (UniProt P04925)
Test: SEC

Cu^2+-catalyzed oxidized PrP(23–231) (mild condition) (from UniProt P04925 23-231) (natural protein)
percent of total protein in the tetramer band: < 5% | stoichiometry N: 4
